The target of the test is T1, FLAG-RhoGDI-γ (immobilized) (UniProt Q99819 1-225).
T1 construct: RhoGDIγ, full-length cDNA NM_001176 inserted into pFLAG-CMV2
T1 sequence (looked up): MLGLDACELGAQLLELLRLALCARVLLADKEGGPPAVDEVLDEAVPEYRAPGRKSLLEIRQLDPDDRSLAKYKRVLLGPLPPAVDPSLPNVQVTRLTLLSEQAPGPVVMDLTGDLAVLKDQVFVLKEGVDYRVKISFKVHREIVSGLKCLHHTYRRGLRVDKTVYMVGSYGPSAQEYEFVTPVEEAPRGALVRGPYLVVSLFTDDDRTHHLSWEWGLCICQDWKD
The test can be described thus: pull-down; competition assay: purified GST-RhoH and RhoA incubated with immobilized FLAG-RhoGDI-γ for 2 h; increasing doses of RhoH. The following applies: both partners purified.

B1: GST-RhoH (natural protein, UniProt Q15669 1-191, looked up)
chain: MLSSIKCVLVGDSAVGKTSLLVRFTSETFPEAYKPTVYENTGVDVFMDGIQISLGLWDTAGNDAFRSIRPLSYQQADVVLMCYSVANHNSFLNLKNKWIGEIRSNLPCTPVLVVATQTDQREMGPHRASCVNAMEGKKLAQDVRAKGYLECSALSNRGVQQVFECAVRTAVNQARRRNRRRLFSINECKIF
notes: RhoH; the only GST vector named is pEBG-RhoH, made by inserting full-length cDNAs (RhoH: NM_001278369); also called GST-tagged RhoH; source: E. coli DH5α, IPTG induction, purified (glutathione-Sepharose, eluted with reduced glutathione)
B1: the binding result was “binds”.

Source of the values: PMC6135800, “STAT3-coordinated migration facilitates the dissemination of diffuse large B-cell lymphomas” (Nature Communications, 2018).
